Experimental data published in patent publication US20080058263A1 (published 2008).

Columns and labels:
Assay in all cases: receptor-Fc IP
[1] = target: T1, VEGFR-1-Fc (UniProt P17948 27-338)
T1 construct: domain: first three Ig domains; expressed in Drosophila S2 cells, purified on Protein A sepharose; also called VEGFR-1-Fc fusion protein; not shown: Fc fragment from the Signal-pIgPlus vector
In short: (§1)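 fusion protein at 400 ng/ml in an IP mix (PBS, 1.5% BSA, 0.06% Tween 20, 3 μg/ml heparin) was combined with sample supernatant at a 1:2 ratio. Bound ligand captured by immunoprecipitation with pentahistidine antibody.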

[2] = target: T2, VEGFR-2-Fc (UniProt P35968 20-322)
T2 construct: domain: first 3 Ig domains; conditioned supernatant of 293T cells; also called VEGFR-2-Fc fusion protein; not shown: Fc fragment of the pIg vector
T2 sequence (P35968 20-322): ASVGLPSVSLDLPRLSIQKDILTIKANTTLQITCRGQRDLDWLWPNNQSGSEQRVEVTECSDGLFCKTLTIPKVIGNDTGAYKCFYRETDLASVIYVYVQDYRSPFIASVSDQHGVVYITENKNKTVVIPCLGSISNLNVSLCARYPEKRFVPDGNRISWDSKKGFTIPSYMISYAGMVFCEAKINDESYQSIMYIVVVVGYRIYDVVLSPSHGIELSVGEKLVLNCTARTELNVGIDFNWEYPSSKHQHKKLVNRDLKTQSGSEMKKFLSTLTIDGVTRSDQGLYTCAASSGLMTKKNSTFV
In short: as §1

[3] = target: T3, VEGFR-3-Fc (UniProt P35916 25-328)
T3 construct: domain: first three Ig domains; conditioned supernatant of 293T cells; also called VEGFR-3-Fc fusion protein; not shown: Fc fragment of the pIg vector
T3 sequence (looked up): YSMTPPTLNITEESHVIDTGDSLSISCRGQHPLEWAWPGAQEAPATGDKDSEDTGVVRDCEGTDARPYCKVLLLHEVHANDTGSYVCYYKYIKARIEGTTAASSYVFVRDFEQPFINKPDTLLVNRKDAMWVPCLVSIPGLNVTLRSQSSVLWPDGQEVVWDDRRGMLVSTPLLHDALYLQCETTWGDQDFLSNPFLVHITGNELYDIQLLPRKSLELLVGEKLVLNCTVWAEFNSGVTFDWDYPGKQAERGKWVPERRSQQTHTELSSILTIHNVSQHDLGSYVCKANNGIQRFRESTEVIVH
In short: as §1

Measured: binding result

T1 sequence (P17948 27-338): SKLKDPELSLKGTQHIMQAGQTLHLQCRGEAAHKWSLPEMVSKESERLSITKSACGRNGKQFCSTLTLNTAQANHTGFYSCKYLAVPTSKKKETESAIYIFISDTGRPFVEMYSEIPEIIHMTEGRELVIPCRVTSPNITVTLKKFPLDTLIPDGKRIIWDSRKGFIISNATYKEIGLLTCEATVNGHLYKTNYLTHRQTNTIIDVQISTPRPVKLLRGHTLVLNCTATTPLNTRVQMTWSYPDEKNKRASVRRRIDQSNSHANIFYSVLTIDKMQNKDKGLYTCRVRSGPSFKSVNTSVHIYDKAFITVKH

B1: 61-2 (ligand)
chain: GQNHHEVVKFMDVYQRSYCHPREVCIDVGKEYPDEIEYIFKPSCVPLMRCGGCCNDEGLECMNTSTSYLSKTLFEIKPHQGQHIGEMSFLQHNKCECRPKKD
no binding: all assays above

B2: 61-10 (ligand)
chain: GQNHHEVVKFMDVYQRSYCHPREVCIDVGKEYPDEIEYIFKPSCVPLMRCGGCCNDEGLECMNTSTSYLSKTLFEITVPLSQGPKPVTISFLQHNKCECRPKKD
no binding: all assays above

B3: 61-12 (ligand)
chain: GQNHHEVVKFMDVYQRSYCHPREVCIDVGKEYPDEIEYIFKPSCVPLMRCGGCCNSEGLQCMNTSTSYLSKTLFEITVPLSQGPKPVTISFLQHNKCECRPKKD
no binding: all assays above

B4: 61-16 (ligand)
chain: GQNHHEVVKFMDVYQRSYCHPREVCIDVGKEYPDEIEYIFKPSCVPLMRCGGCCNSEGLQCMNTSTSYLSKTLFEITVPLSQGPKPVTISFANHTSCRCMSKLD
no binding: all assays above

B5: 63-10 (ligand)
chain: GQNHHEVVKFMDVYQRSYCHPREVCIDVGKEYPDEIEYIFKPPCVSVYRCGGCCNDEGLECMNTSTSYLSKTLFEITVPLSQGPKPVTISFLQHNKCECRPKKD
no binding: all assays above

B6: 71-2 (ligand)
chain: GQNHHEVVKSIDNEWRKTQCMPREVCIDVGKEYPDEIEYIFKPSCVPLMRCGGCCNDEGLECMNTSTSYLSKTLFEIKPHQGQHIGEMSFLQHNKCECRPKKD
no binding: all assays above

B7: 71-4 (ligand)
chain: GQNHHEVVKSIDNEWRKTQCMPREVCIDVGKEYPDEIEYIFKPSCVPLMRCGGCCNSEGLQCMNTSTSYLSKTLFEIKPHQGQHIGEMSFLQHNKCECRPKKD
no binding: all assays above

B8: 71-8 (ligand)
chain: GQNHHEVVKSIDNEWRKTQCMPREVCIDVGKEYPDEIEYIFKPSCVPLMRCGGCCNSEGLQCMNTSTSYLSKTLFEIKPHQGQHIGEMSFANHTSCRCMSKLD
no binding: all assays above

B9: 71-10 (ligand)
chain: GQNHHEVVKSIDNEWRKTQCMPREVCIDVGKEYPDEIEYIFKPSCVPLMRCGGCCNDEGLECMNTSTSYLSKTLFEITVPLSQGPKPVTISFLQHNKCECRPKKD
no binding: all assays above

B10: 71-16 (ligand)
chain: GQNHHEVVKSIDNEWRKTQCMPREVCIDVGKEYPDEIEYIFKPSCVPLMRCGGCCNSEGLQCMNTSTSYLSKTLFEITVPLSQGPKPVTISFANHTSCRCMSKLD
no binding: all assays above

B11: 71-12 (ligand)
chain: GQNHHEVVKSIDNEWRKTQCMPREVCIDVGKEYPDEIEYIFKPSCVPLMRCGGCCNSEGLQCMNTSTSYLSKTLFEITVPLSQGPKPVTISFLQHNKCECRPKKD
no binding: all assays above

B12: 62-9 (ligand)
chain: GQNHHEVVKFMDVYQRSYCHPREVCIDVGKEFGVATNTFFKPPCVSVYRCGGCCNDEGLECVPTEESNITMQIMRITVPLSQGPKPVTISFLQHNKCECRPKKD
no binding: all assays above

B13: 62-3 (ligand)
chain: GQNHHEVVKFMDVYQRSYCHPREVCIDVGKEFGVATNTFFKPPCVSVYRCGGCCNSEGLQCVPTEESNITMQIMRIKPHQGQHIGEMSFLQHNKCECRPKKD
no binding: all assays above

B14: 62-7 (ligand)
chain: GQNHHEVVKFMDVYQRSYCHPREVCIDVGKEFGVATNTFFKPPCVSVYRCGGCCNSEGLQCVPTEESNITMQIMRIKPHQGQHIGEMSFANHTSCRCMSKLD
no binding: all assays above

B15: 62-5 (ligand)
chain: GQNHHEVVKFMDVYQRSYCHPREVCIDVGKEFGVATNTFFKPPCVSVYRCGGCCNDEGLECVPTEESNITMQIMRIKPHQGQHIGEMSFANHTSCRCMSKLD
no binding: all assays above

B16: 62-4 (ligand)
chain: GQNHHEVVKFMDVYQRSYCHPREVCIDVGKEFGVATNTFFKPPCVSVYRCGGCCNSEGLQCMNTSTSYLSKTLFEIKPHQGQHIGEMSFLQHNKCECRPKKD
no binding: all assays above

B17: 22-1 (ligand)
chain: AHYNTEILKSIDNEWRKTQCMPREVCIDVGKEFGVATNTFFKPPCVSVYRCGGCCNDEGLECVPTEESNITMQIMRIKPHQGQHIGEMSFLQHNKCECRPKKDLVFEQKLISEEDLNSAVDHHHHHH
no binding: all assays above

B18: 71-1 (ligand)
chain: GQNHHEVVKSIDNEWRKTQCMPREVCIDVGKEYPDEIEYIFKPSCVPLMRCGGCCNDEGLECVPTEESNITMQIMRIKPHQGQHIGEMSFLQHNKCECRPKKD
no binding: all assays above

B19: 71-3 (ligand)
chain: GQNHHEVVKSIDNEWRKTQCMPREVCIDVGKEYPDEIEYIFKPSCVPLMRCGGCCNSEGLQCVPTEESNITMQIMRIKPHQGQHIGEMSFLQHNKCECRPKKD
no binding: all assays above

B20: 71-7 (ligand)
chain: GQNHHEVVKSIDNEWRKTQCMPREVCIDVGKEYPDEIEYIFKPSCVPLMRCGGCCNSEGLQCVPTEESNITMQIMRIKPHQGQHIGEMSFANHTSCRCMSKLD
no binding: all assays above

B21: 71-5 (ligand)
chain: GQNHHEVVKSIDNEWRKTQCMPREVCIDVGKEYPDEIEYIFKPSCVPLMRCGGCCNDEGLECVPTEESNITMQIMRIKPHQGQHIGEMSFANHTSCRCMSKLD
no binding: all assays above

B22: 53-15 (ligand)
chain: AHYNTEILKSIDNEWRKTQCMPIETLVDIFQEYPDEIEYIFKPPCVSVYRCGGCCNSEGLQCVPTEESNITMQIMRITVPLSQGPKPVTISFANHTSCRCMSKLD
no binding: all assays above

B23: 63-5 (ligand)
chain: GQNHHEVVKFMDVYQRSYCHPREVCIDVGKEYPDEIEYIFKPPCVSVYRCGGCCNDEGLECVPTEESNITMQIMRIKPHQGQHIGEMSFANHTSCRCMSKLD
no binding: all assays above
